Measurements taken from PMC9482650, “Quantitative fragmentomics allow affinity mapping of interactomes” (Nature Communications, 2022).

Experiments:
Experiment in all cases: holdup assay
Design in all cases: key: below the threshold = too weak to quantify, mostly under pKd 3.1 to 4
[1] = molecular target: T1, APBA2_1, Q99767
T1 sequence (Q99767 563-664, limits assumed, looked up): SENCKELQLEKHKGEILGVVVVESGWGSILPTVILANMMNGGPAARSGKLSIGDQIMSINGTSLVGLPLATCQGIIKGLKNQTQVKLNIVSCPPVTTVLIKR

[2] = molecular target: ARHGEF12, Q9NZN5-2
Sequence of ARHGEF12, Q9NZN5-2 (Q9NZN5 other isoform, or with tags, fused parts or gaps): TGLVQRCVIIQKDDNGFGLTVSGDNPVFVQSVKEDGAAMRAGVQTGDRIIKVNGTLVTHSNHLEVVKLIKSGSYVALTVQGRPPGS

[3] = molecular target: T2, DLG3_1, Q92796
T2 sequence (Q92796 125-227, limits assumed, looked up): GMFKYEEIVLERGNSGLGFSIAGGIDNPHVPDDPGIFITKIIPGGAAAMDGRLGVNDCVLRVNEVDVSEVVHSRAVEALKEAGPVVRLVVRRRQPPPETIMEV

[4] = molecular target: T3, DLG3_2, Q92796
T3 sequence (Q92796 221-321, limits assumed, looked up): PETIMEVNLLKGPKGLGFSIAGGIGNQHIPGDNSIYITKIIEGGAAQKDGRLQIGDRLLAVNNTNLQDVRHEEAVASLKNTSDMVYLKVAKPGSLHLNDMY

[5] = molecular target: T4, DVL3, Q92997
T4 sequence (Q92997 244-331, limits assumed, looked up): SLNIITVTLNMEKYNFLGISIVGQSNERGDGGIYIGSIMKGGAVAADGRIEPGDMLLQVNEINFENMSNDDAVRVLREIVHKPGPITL

[6] = molecular target: T5, FRMPD1, Q5SYB0
T5 sequence (Q5SYB0 52-145, limits assumed, looked up): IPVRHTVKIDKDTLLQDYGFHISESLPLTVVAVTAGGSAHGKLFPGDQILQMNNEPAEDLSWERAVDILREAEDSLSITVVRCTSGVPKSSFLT

[7] = molecular target: FRMPD2_2, Q68DX3
Sequence of FRMPD2_2, Q68DX3 (Q68DX3 944-1038): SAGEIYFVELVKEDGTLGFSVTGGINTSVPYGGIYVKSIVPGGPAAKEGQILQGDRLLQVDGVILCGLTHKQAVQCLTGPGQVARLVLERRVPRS

[8] = molecular target: GORASP2, Q9H8Y8
[9] = molecular target: GRID2IP_1, A4D2P6
Sequence of GRID2IP_1, A4D2P6 (A4D2P6 1-87): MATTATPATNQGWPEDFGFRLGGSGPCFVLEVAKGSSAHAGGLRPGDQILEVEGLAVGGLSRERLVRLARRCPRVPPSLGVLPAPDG

[10] = molecular target: T6, GRIP1_2, Q9Y3R0
T6 sequence (Q9Y3R0 145-248, limits assumed, looked up): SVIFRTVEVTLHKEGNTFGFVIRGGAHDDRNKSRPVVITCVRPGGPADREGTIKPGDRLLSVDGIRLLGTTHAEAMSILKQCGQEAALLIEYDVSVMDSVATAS

[11] = molecular target: HTRA1, Q92743
Sequence of HTRA1, Q92743 (Q92743 360-477): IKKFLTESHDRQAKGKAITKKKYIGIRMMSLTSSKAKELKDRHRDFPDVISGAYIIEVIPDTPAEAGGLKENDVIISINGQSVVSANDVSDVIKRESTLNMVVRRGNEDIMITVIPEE

[12] = molecular target: HTRA2, O43464
Sequence of HTRA2, O43464 (O43464 355-458): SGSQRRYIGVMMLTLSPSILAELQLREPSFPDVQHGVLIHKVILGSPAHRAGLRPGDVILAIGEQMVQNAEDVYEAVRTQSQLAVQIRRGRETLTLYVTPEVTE

[13] = molecular target: IL16_4, Q14005
Sequence of IL16_4, Q14005 (Q14005 1229-1329): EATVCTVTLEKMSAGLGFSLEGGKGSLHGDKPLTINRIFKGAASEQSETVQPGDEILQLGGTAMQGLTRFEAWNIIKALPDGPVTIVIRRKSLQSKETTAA

[14] = molecular target: Inadl_8, Q8NI35
Sequence of Inadl_8, Q8NI35 (Q8NI35 1425-1530): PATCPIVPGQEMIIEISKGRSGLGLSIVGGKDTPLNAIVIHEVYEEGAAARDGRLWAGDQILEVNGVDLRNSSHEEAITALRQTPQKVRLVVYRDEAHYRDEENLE

[15] = molecular target: LAP2, Q96RT1
Sequence of LAP2, Q96RT1 (Q96RT1 other isoform, or with tags, fused parts or gaps): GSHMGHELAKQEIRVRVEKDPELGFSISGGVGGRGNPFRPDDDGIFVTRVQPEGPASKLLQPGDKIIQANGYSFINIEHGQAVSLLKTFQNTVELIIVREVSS

[16] = molecular target: T7, LIN7A, O14910
T7 sequence (O14910 103-200, limits assumed, looked up): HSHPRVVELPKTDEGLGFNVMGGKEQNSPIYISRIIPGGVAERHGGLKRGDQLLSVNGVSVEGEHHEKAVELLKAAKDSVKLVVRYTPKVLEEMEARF

[17] = molecular target: T8, LIN7B, Q9HAP6
T8 sequence (Q9HAP6 88-185, limits assumed, looked up): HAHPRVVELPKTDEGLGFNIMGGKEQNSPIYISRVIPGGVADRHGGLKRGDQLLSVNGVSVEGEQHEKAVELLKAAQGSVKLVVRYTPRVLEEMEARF

[18] = molecular target: LNX1_3, Q8TBB1
Sequence of LNX1_3, Q8TBB1 (Q8TBB1 500-596): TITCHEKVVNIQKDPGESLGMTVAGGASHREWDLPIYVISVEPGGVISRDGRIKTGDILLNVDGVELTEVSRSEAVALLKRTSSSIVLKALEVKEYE

[19] = molecular target: T9, MPP6, Q9NZW5
T9 sequence (Q9NZW5 125-219, limits assumed, looked up): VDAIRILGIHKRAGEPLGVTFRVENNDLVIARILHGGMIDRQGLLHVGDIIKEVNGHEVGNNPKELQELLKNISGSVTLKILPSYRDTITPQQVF

[20] = molecular target: NHERF4_1, Q86UT5-2
Sequence of NHERF4_1, Q86UT5-2 (Q86UT5 other isoform, or with tags, fused parts or gaps): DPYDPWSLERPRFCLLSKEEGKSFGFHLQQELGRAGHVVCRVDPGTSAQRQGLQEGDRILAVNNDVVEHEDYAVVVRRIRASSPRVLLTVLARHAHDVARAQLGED

[21] = molecular target: T10, PCLO, Q9Y6V0
T10 sequence (Q9Y6V0 4491-4600, limits assumed, looked up): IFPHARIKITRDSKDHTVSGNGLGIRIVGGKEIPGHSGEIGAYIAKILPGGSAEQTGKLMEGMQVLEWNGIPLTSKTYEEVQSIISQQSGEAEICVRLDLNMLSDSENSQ

[22] = molecular target: PDLIM1, O00151
Sequence of PDLIM1, O00151 (O00151 1-87): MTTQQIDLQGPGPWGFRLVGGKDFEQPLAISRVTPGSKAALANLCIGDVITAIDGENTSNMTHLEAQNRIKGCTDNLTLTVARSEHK

[23] = molecular target: T11, PDZRN3_1, Q9UPQ7
T11 sequence (Q9UPQ7 244-349, limits assumed, looked up): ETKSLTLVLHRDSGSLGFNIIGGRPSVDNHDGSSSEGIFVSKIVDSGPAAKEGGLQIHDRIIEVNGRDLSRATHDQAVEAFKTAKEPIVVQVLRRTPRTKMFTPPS

[24] = molecular target: SCRIB_3, Q14160
Sequence of SCRIB_3, Q14160 (Q14160 999-1103): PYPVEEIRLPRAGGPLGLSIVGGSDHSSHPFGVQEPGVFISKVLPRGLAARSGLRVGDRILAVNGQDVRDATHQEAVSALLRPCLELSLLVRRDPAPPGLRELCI

[25] = molecular target: T12, SNTG1, Q9NSN8
T12 sequence (Q9NSN8 52-150, limits assumed, looked up): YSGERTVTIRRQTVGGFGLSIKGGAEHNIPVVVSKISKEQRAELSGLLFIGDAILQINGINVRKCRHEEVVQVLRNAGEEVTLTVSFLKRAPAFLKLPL

[26] = molecular target: TJP1_3, Q07157
Sequence of TJP1_3, Q07157 (Q07157 416-512): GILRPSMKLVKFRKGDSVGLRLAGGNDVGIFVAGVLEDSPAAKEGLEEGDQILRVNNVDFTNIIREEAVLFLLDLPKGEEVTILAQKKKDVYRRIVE

[27] = modified: phospho on T at position -2 from the C-terminal residue
[28] = plain residues with an end cap or a label only (N-terminal biotin on a linker: ado-ado)

Measured: pKd

SSRTRRETQL [HPV16-E6_-2P, P03126]
4.37: [20]; [27]
below the threshold: [1]; [27] | [2]; [27] | [3]; [27] | [4]; [27] | [5]; [27] | [6]; [27] | [7]; [27] | [8]; [27] | [9]; [27] | [10]; [27] | [11]; [27] | [12]; [27] | [13]; [27] | [14]; [27] | [15]; [27] | [16]; [27] | [17]; [27] | [18]; [27] | [19]; [27] | [21]; [27] | [22]; [27] | [23]; [27] | [24]; [27] | [25]; [27] | [26]; [27]

PYSESDDDWC [CACNA1A, O00555]
3.87: [15]; [28]
4.16: [4]; [28]
4.53: [11]; [28]
3.9: [17]; [28]
below the threshold: [1]; [28] | [2]; [28] | [3]; [28] | [5]; [28] | [6]; [28] | [7]; [28] | [9]; [28] | [12]; [28] | [13]; [28] | [14]; [28] | [16]; [28] | [18]; [28] | [19]; [28] | [21]; [28] | [23]; [28] | [26]; [28]
3.62: [10]; [28]
3.66: [25]; [28]
4.01: [20]; [28]
3.68: [22]; [28]
3.83: [24]; [28]
3.67: [8]; [28]
